Values joined by “and” are separate entries in the source; they are usually repeats but may differ in a detail not shown here. Equal values may be shown once. Read-outs that look alike come from different tables or passages of the source.
Legend:
[1] = target: T1, SARS-CoV-2 HexaPro S2 (isolated S2 domain) (SARS-CoV-2, UniProt P0DTC2 697-1208); experiment: BLI equilibrium, IgG on anti-Fc tips
T1 construct: range 697-1208

[2] = target: T2, aglycosylated HexaPro (HexaPro treated with Endo H) (SARS-CoV-2, UniProt P0DTC2 14-1208); experiment: BLI equilibrium, IgG on anti-Fc tips
[3] = target: T2, aglycosylated HexaPro (HexaPro treated …); experiment: BLI equilibrium, IgG on anti-Fc sensor
[4] = target: T1, SARS-CoV-2 HexaPro S2 (isolated S2 …); experiment: BLI; column head says Fab Kd, footnote says immobilized IgG
HexaPro E1031R = HexaPro E1031R (SARS-CoV-2, UniProt P0DTC2 14-1208)
[5] = target: T3, wild-type SARS-CoV-2 spike without stabilizing modifications (on cells or pseudovirus) (SARS-CoV-2, UniProt P0DTC2 14-1273); experiment: cell-based or functional assay
[6] = target: T4, SARS-CoV-2 D614G spike without stabilizing modifications (on cells or pseudovirus) (SARS-CoV-2, UniProt P0DTC2 14-1273); experiment: cell-based or functional assay
[7] = target: T3, wild-type SARS-CoV-2 spike without …; experiment: cell-based or functional assay; remark: listed apart in the source
[8] = target: T4, SARS-CoV-2 D614G spike without …; experiment: cell-based or functional assay; remark: listed apart in the source
[9] = target: SARS-CoV-2 B.1.1.7 (variant Alpha) spike on pseudovirus (SARS-CoV-2, UniProt P0DTC2 14-1273); experiment: cell-based or functional assay
[10] = target: T1, SARS-CoV-2 HexaPro S2 (isolated S2 …)
[11] = target: T1, SARS-CoV-2 HexaPro S2 (isolated S2 …); remark: listed apart in the source
[12] = target: T1, SARS-CoV-2 HexaPro S2 (isolated S2 …); remark: listed apart in the source
[13] = target: T1, SARS-CoV-2 HexaPro S2 (isolated S2 …); remark: listed apart in the source
[14] = target: T1, SARS-CoV-2 HexaPro S2 (isolated S2 …); remark: listed apart in the source
[15] = target: soluble SARS-CoV-2 spike protein variant 4PDS (SARS-CoV-2, UniProt P0DTC2 14-1208)

B1: 4H2 full-length antibody (mouse variable region-human IgG1 constant region chimera) (antibody, V domains shown)
VH: EVQVVESGGGLVQPGGSRKLSCAASGFTFSSYGMSWVRQTPDKRLEWVATISSGGSYTYYPDSVKGRFTISRDNAKNNLYLQMSSLKSEDTAMYYCARDGYGNYVGMDYWGQGTSVTVSS
VL: DIVLTQSPAIMSASPGEKVTITCSASSSVSYMHWFQQKPGTSPKLWIYSTSNLASGVPARFSGSGSGTSYSLTISSMEAEDAATYYCQQWSSNSYTFGGGTKLEIKR
Kd [1]: 63 nM
Kd [2]: 9 nM
Kd [3]: 9 nM
Kd [4]: 63 nM

B2: 4A5 full-length antibody (mouse variable region-human IgG1 constant region chimera) (antibody, V domains shown)
VH: QVQLQQSGAELAKPGASVKMSCKASGYTFTSYWMHWVKQRPGQGLEWVGMIDPSNSETRLNQKFKDKATLNVDKSSNTAYMQLSSLTSEDSAVYYCARLGRYWGQGTTLTVSS
VL: DIVMTQSHKFMSTSVGDRVSITCKASQNVGANVAWYQQKPGQSPKALIYSASYRYSGVPDRFTGSGSGTDFTLTISNVQSEDLAEYFCQQYNSYPYTSGGGTKLEIKR
Kd [1]: 11 nM
Kd [2]: 10 nM
Kd [3]: 10 nM
Kd [4]: 11 nM

B3: 3A3 full-length antibody (mouse variable region-human IgG1 constant region chimera) (antibody, V domains shown)
VH: QVQLQQSGAELLKPGASVKLSCTASGFNIKDTYIHWLKQRPEQGLEWIGRIGPAIGNTIYAPKFQGKATITTDTSSNTAYLQLSSLTSEDTAVYYCARYYGSSYYYFDYWGQGTTLTVSS
VL: DIVMTQSAPSVPVTPGESVSISCRSSKSLLHSNGNTYLYWFLQRPGQSPQLLIYRMSNLASGVPDRFSGSGSGTAFTLRISRVEAEDVGVYYCMQYLEYPLTFGAGTKLELKR
Kd (HexaPro E1031R): 1.5 nM
kon (HexaPro E1031R): 2.88e+06 M⁻¹ s⁻¹
IC50 of pseudovirus entry (FIG. 3A) [5]: 25.6 µg/mL
IC50 of pseudovirus infection (FIG. 3A) [5]: ~173 nM
IC50 of pseudovirus entry (FIG. 3A) [6]: 2.05 µg/mL
IC50 of pseudovirus infection (FIG. 3A) [6]: ~14 nM
Pseudovirus IC50 [7]: 212 nM
Pseudovirus IC50 [8]: 94 nM
Pseudovirus IC50 [9]: 119 nM
Kd [2]: 7.9 nM
Kd [3]: 8.4 nM

B4: 3A3 Fab (mouse Fab fragment) (Fab, V domains shown)
VH: QVQLQQSGAELLKPGASVKLSCTASGFNIKDTYIHWLKQRPEQGLEWIGRIGPAIGNTIYAPKFQGKATITTDTSSNTAYLQLSSLTSEDTAVYYCARYYGSSYYYFDYWGQGTTLTVSS
VL: DIVMTQSAPSVPVTPGESVSISCRSSKSLLHSNGNTYLYWFLQRPGQSPQLLIYRMSNLASGVPDRFSGSGSGTAFTLRISRVEAEDVGVYYCMQYLEYPLTFGAGTKLELKR
Kd [10]: ~2.5 nM
koff [10]: 0.005 s⁻¹
kon [10]: ~2e+06 M⁻¹ s⁻¹
Kd [11]: 2.2 nM and 3.2 nM
Kd [12]: 3.2 nM
Kd [13]: 2.2 nM
koff [13]: 0.0049 s⁻¹
kon [13]: 2.3e+06 M⁻¹ s⁻¹
Kd [14]: 3.6 nM
koff [14]: 0.0046 s⁻¹
kon [14]: 1.3e+06 M⁻¹ s⁻¹

B5: combination of AM3A3-5 heavy chain with unmodified hu3A3 (WT; ven3A3) light chain (antibody, V domains shown)
VH: QVQLVQSGAEVLKPGASVKLSCKASGFNIKDTYIHWLKQAPGQRLEWIGRIGPAIGNTIYAPKFQGKATITTDTSASTAYLELSSLRSEDTAVYYCARYYGYAYYYFDYWGQGTTVTVSS
VL: DIVMTQSPLSVPVTPGEPVSISCRSSKSLLHSNGNTYLYWFLQKPGQSPQLLIYRMSNLASGVPDRFSGSGSGTAFTLKISRVEAEDVGVYYCMQYLEYPLTFGAGTKLEIK
Fold improvement over WT/WT [15]: 0.5 fold

B6: combination of AM3A3-3 heavy chain with AM3A3-5 light chain (antibody, V domains shown)
VH: QVQLVQSGADVLKPGASVKLSCKASGFNIKNTYIHWLKQAPGQRLEWIGRIGPAIGNTIYAPKFQGKATITTDTSASTAYLELSSLRSEDTAVYYCARYYGSSYYYLDYWGQGTTVTVSS
VL: DIVMTQSPLSVPVTPGEPVSISCRSSKSLLHSNGNTYLYWFLQKPGQSPQLLIARMSTLASGVPDRFSGSGSGTAFTLKISRVEAEDVGVYYCMQYLEYPLTFGAGTKLEIK
Fold improvement over WT/WT [15]: 95.6 fold

B7: combination of unmodified hu3A3 (WT; ven3A3) heavy chain with AM3A3-3 light chain (antibody, V domains shown)
VH: QVQLVQSGAEVLKPGASVKLSCKASGFNIKDTYIHWLKQAPGQRLEWIGRIGPAIGNTIYAPKFQGKATITTDTSASTAYLELSSLRSEDTAVYYCARYYGSSYYYFDYWGQGTTVTVSS
VL: DIVMTQSPLSVPVTPGEPVSISCRSSKSLHHSNGNTYLYWFLQKPGQSPQLLIYRMSNLASGVPDRFSGSGNGTAFTLKISRVEAEDVGVYYCMQYLEYPLTFDAGTKLEIK
Fold improvement over WT/WT [15]: 13.7 fold

B8: combination of AM3A3-5 heavy chain with AM3A3-3 light chain (antibody, V domains shown)
VH: QVQLVQSGAEVLKPGASVKLSCKASGFNIKDTYIHWLKQAPGQRLEWIGRIGPAIGNTIYAPKFQGKATITTDTSASTAYLELSSLRSEDTAVYYCARYYGYAYYYFDYWGQGTTVTVSS
VL: DIVMTQSPLSVPVTPGEPVSISCRSSKSLHHSNGNTYLYWFLQKPGQSPQLLIYRMSNLASGVPDRFSGSGNGTAFTLKISRVEAEDVGVYYCMQYLEYPLTFDAGTKLEIK
Fold improvement over WT/WT [15]: 4.3 fold

B9: humanized 3A3 with ven3A3VH and ven3A3VL (antibody, V domains shown)
VH: QVQLVQSGAEVLKPGASVKLSCKASGFNIKDTYIHWLKQAPGQRLEWIGRIGPAIGNTIYAPKFQGKATITTDTSASTAYLELSSLRSEDTAVYYCARYYGSSYYYFDYWGQGTTVTVSS
VL: DIVMTQSPLSVPVTPGEPVSISCRSSKSLLHSNGNTYLYWFLQKPGQSPQLLIYRMSNLASGVPDRFSGSGSGTAFTLKISRVEAEDVGVYYCMQYLEYPLTFGAGTKLEIK
Fold improvement over WT/WT [15]: 1 fold

B10: combination of AM3A3-3 heavy chain with unmodified hu3A3 (WT; ven3A3) light chain (antibody, V domains shown)
VH: QVQLVQSGADVLKPGASVKLSCKASGFNIKNTYIHWLKQAPGQRLEWIGRIGPAIGNTIYAPKFQGKATITTDTSASTAYLELSSLRSEDTAVYYCARYYGSSYYYLDYWGQGTTVTVSS
VL: DIVMTQSPLSVPVTPGEPVSISCRSSKSLLHSNGNTYLYWFLQKPGQSPQLLIYRMSNLASGVPDRFSGSGSGTAFTLKISRVEAEDVGVYYCMQYLEYPLTFGAGTKLEIK
Fold improvement over WT/WT [15]: 11.6 fold

B11: combination of unmodified hu3A3 (WT; ven3A3) heavy chain with AM3A3-5 light chain (antibody, V domains shown)
VH: QVQLVQSGAEVLKPGASVKLSCKASGFNIKDTYIHWLKQAPGQRLEWIGRIGPAIGNTIYAPKFQGKATITTDTSASTAYLELSSLRSEDTAVYYCARYYGSSYYYFDYWGQGTTVTVSS
VL: DIVMTQSPLSVPVTPGEPVSISCRSSKSLLHSNGNTYLYWFLQKPGQSPQLLIARMSTLASGVPDRFSGSGSGTAFTLKISRVEAEDVGVYYCMQYLEYPLTFGAGTKLEIK
Fold improvement over WT/WT [15]: 63.7 fold

B12: AM3A3-5 (affinity matured humanized 3A3) (antibody, V domains shown)
VH: QVQLVQSGAEVLKPGASVKLSCKASGFNIKDTYIHWLKQAPGQRLEWIGRIGPAIGNTIYAPKFQGKATITTDTSASTAYLELSSLRSEDTAVYYCARYYGYAYYYFDYWGQGTTVTVSS
VL: DIVMTQSPLSVPVTPGEPVSISCRSSKSLLHSNGNTYLYWFLQKPGQSPQLLIARMSTLASGVPDRFSGSGSGTAFTLKISRVEAEDVGVYYCMQYLEYPLTFGAGTKLEIK
Fold improvement over WT/WT [15]: 50.5 fold

B13: AM3A3-3 (affinity matured humanized 3A3) (antibody, V domains shown)
VH: QVQLVQSGADVLKPGASVKLSCKASGFNIKNTYIHWLKQAPGQRLEWIGRIGPAIGNTIYAPKFQGKATITTDTSASTAYLELSSLRSEDTAVYYCARYYGSSYYYLDYWGQGTTVTVSS
VL: DIVMTQSPLSVPVTPGEPVSISCRSSKSLHHSNGNTYLYWFLQKPGQSPQLLIYRMSNLASGVPDRFSGSGNGTAFTLKISRVEAEDVGVYYCMQYLEYPLTFDAGTKLEIK
Fold improvement over WT/WT [15]: 63.3 fold
